From the nanobody polyreactivity screen of Harvey et al. (2022)

Assay: yeast display, Sf9 membrane polyspecificity reagent, FACS + sequencing; frameworks hold sequencing errors
Method in brief: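 A synthetic nanobody library was expressed on Saccharomyces cerevisiae BJ5465 by galactose induction for 36–48 hours. The library was stained for 1 hour at 4 °C with 10% biotinylated, detergent-solubilized Sf9 membrane reagent and enriched with streptavidin microbeads before FACS. Low and high (top ~1%) gates were set on anti-HA fluorescence for expression and streptavidin fluorescence for reagent binding, and each polyreactivity label reflects the gate of origin.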

Sequence	polyreactivity (PSR sort gate)
QVQLVESGGGLVQAGGSLRLSCAASGSIFKKYAMGWYRPAPGKERELVAAITRGTYYADSVKGRFTISRDNAKNTVYLQMNSLKPEDTAVYDCNREYWGRGYYRVRGEYDYWGQGTQVSVSS	low polyreactivity
QVQLVESGGGLVQAGGSLRLSCAASGGIFRKYAMGWDRQAPGKERDLVAAITSGGGTYYADSVKGRFTISRDNAKNTVLLQMNSQKPEDTAVYYCAARTLYVARRRPYYYWGQGTLVTVSS	high polyreactivity
HVQLVESGGGLVQAGASLRLSCAASGSTFSTYGMGCSRQAPGKVRELVADISDSTGSTYYADSVKGRFTISRDNAKYTVYLQMNSLKPEDNAVYYCAADSGEPSWGYDYWGQGTQVTVSS	low polyreactivity
QVQLVESGGGLVQAGGSLRLICAASGFIFRRYAMGWYRQSPGKERELVAAISSRGGSTYYADSVKGRFTISRDNAKNTVYLQMNSLKPEDTAVYYCAAYDAVTYPFDYWGQGTQVTVSS	high polyreactivity
QVQLVESGGGLVQAGGSLRLSCAASGLIFGWYAMGWYRQAPGKEREFVASIRYGGGSTYYADSVKGRFTISRDNAKKTVYLQMNSLKPEDTAVYYCAAELSVDKYDYWGQGTQETVSS	low polyreactivity
QVHLVESGGGLVQAGGSLRLSCAASGSTFGTNAMGWYRQAPGKERELVARINSSASTTYADSVKGRFTISRDNAKNTVYLQMNSLKPEDTAVYYCAKSSLNIYDYWGQGTQVTVSS	high polyreactivity
QVQLVESGGGLVQAGGSLRLSCAASGRILGAYAMGWYRQAPGKERELVASISSGGRTYYADSVKGRFTISRDNAKNTVYLQMNSLKPEDTAVYYCNAKVRRRKYDYWGQGTQVTVSS	high polyreactivity
QVQLVESGGGLVQAGGSLRLSCAASGSISSNAMGWYRQAPGKERELVAAISGSVGSTYYADSVKGRFTISRDNAKNTVYLQMNSLKREDTAVYYCAADAEAGRYVYGASSELGYDYWGQGTQVTVSS	low polyreactivity
QVQLVESGGGLVQAGGSLRLRCAATGSTFVYNAMGWYRPAPGKVRELVARITRSGGSTYYADSVKGRFTISRDNAKNTVYLQMKSLKPEDTAVYYCAKEREGHSVRIGPRYNYWGQGSQVTVSS	low polyreactivity
QVQLVESGGGLVQAGGSLRLICAASGSTIGTNAMGWYRQAPGKERELVAAISRSGGRTYYADSVKGRFTISRDNAKNTVYLQMNSLKPEDTAVYYCAKAGLYTEYDYWGQGTQVTVSS	high polyreactivity
QVQLVESGGGLVQAGGSLRLSCAASGRILAYYAMGWYRQAPGKERELVAAITSGGRTYYADSVKGRFTISRDNAKNTVYLQMNSLKPEDTPVYYCNAVYGYWYGSWGQGTQVTVSS	high polyreactivity
QVQLVESGGGLVQAGGSLRLSCAASGSIFASYAMGWYRQAPGKERELVAAISARGGSTYYADSVKGRFTISRDNAKNTVYLQMNSLKPEDTAVYYCAARHQQGRRISDYGYWGQGTQVTVSS	high polyreactivity
QVQLVESGGGLVQAGGSLRLSCAASGFIFDYYAMGWYRQAPGTEREFVAAITWDGGSTYYADSVKGRFTISRDNAKNTVYLQMNSLKTEDTAVYYCAAETWGEYGYWGQGTQVTVSS	low polyreactivity
QVQLVDSGGGLVQAGGSLRLSCAASGLIFSYNAMGWYRQAPGKERELVATIRRVGSTNYADSVKGRFTISRDNEKNTVYLQMNSLKPEDTAVYYCAARSLRYGRGMYYWGQGTQVTVSS	high polyreactivity
QVQLVESGGGLVQAGGTLRLSCAASGRTFPLYAMGWYRQAPGKERELVAAISSSGGNTYYADSVKGRFTISRDNAKNTVYLQMNSLKPEDTAVYYCNADVSTNSDRLQLDYWGQGTQVTVSS	low polyreactivity
QVQLVETGRGLVQAGGSLRLSCAASGSTFWPNAMGWYRQAPGKDRELVAAITSGGGTKYADSVKGRFTISRDNAKNTVYLQMNSLKPEDTAVYYCAKRKGDRGAWNHAYGWEDVDYWGQGTQVTVSS	low polyreactivity

Sequence	polyreactivity (PSR sort gate)
QVQLVESGGALVQAGGSLRLSCAASGRIFYKYVMGWYRQAPGKERELVATITSGGSTYYADSVKWRFTISRDNAKNTVYLQMNSLKPEDTAVYYCAARKYYSRAYDYWGQGTQVTVSS	high polyreactivity
QVQLVESGGGLVQAGGSLRLSCAASGNIFESYGMGWYRQAPGKERELVATINTSSGSTYYADSVKGRFTISRDNAKNSVYVQMNSLKPEDTAVYYCAAEWYPYPWGYGYWGQGTQVTVSS	low polyreactivity
QVQLVESGGGLVQAGGSLRLSCAASGLTFYDYAMGWYRQAPGKERELVADIDFNGGSTSYADSVKGRFTISRDNAKNTVYLQMNSLKREDTAVYYCNTRDRGDVVTGLDYWGQGTQVTVSS	low polyreactivity
QVQLVESGGGLVQAGGSLRLSCAASGSTFADYAMGWYRQAPGKERELVAAISWSGGRTYYADSVKGRFTISRDNAKNTVYLQMNSLKPEDTAVYYCAAGFGDGPGNGYYTRYSWDDDYWGQGTQVTVSS	low polyreactivity
QLQLVESGGGLVQAGGSLRLSCAASGRIFYVNAMGWYRPAPGKERELVAAISRSGSSTYYADSVKGRFTISRDNAKNTVYLQMNSLKPEDTADYYCAARYYGRSQHHFDYWGQGTQVTVSS	high polyreactivity
QVQLVESGGGLVQAGGSLRLSCAASGSTLQRYAMGWYRQAPGKEREFVAAINWSGSNTYYADSVKGRFTISRDNAKNTVYLQMNSLKPEDTAVYYCATNTWLFGGNYWGQGTQVTVSS	high polyreactivity
QVQLVESGGGLVQAGGSLRLSCAASGFTCGYYAMGWYREAPGKEREFVATISYGTGSTYYADSVKGRFTISRDNAKNTVSFQMNSLKPEDTAVYYCNADTWPGEYNGYFSGAYDYWGQGTQVTVSS	high polyreactivity
QVQLVESGGGLVQAGGSLRLSCAASGIIFYDYAMGWYRQAPGKERELVAAISTDAGSTYYADSVKGRFTISRDNAKNTVYLQMNCLKPEDTAVYYCNADELSYYVSWDYEYDYWGQGTQVTVSS	high polyreactivity
QVQLVESGGGLVQAGGSLRLTCAASGSIFPGYAMGWYRQAPGKDRELVATITASGGSTYYADSVKGRFTISRDNAKNTVFLQMISLKPEDTAVYDCAKDRYWYFRRRGQYDYWGQGTQVTVSS	high polyreactivity
QVQLLESGGGLDQARGSLRLSCAASGRTFYGYGMGWSRQAPGKEREFVAAISYSGGSTYYADSVKGRFTISRDNAKNTVYLQMNSLKPEDTAVYYSAARNRGSCYYYWGQGTQVTVSS	high polyreactivity
QGQLVESGGGLVQAGASLRLSCAASGFIFAHYTMGWYRQAPGKARELVAAITRAGGSTFYADSVKGRFTISRDNAKNTVYLQRNSLKPEDTAVYYCNRGNRWNFDSWGQGTQVTVSS	high polyreactivity
QVQLVESGGGLVQAGGSLRLICAASGSTFSYNAMGWYRQAPGKEREFVAAITSSGSSTYYADSVKGRFTISRYNAKNTVYLQMNSLKPEDTAVYYCNAEVLFVAGQVQRNSGDYWGQGTQVTVSS	low polyreactivity
QVQLVESGGGLVQAGGSLRLSCAASGIIFQQYAMGWYRQAPGKERELVAAITYSGDGTYYADSVKGRFTISRDNAKNTVYLQMNSLKPEDTAVYYCAAYPRDPYKEYDYWGQGTQVTVSS	low polyreactivity
QDQLVESGGGLVQAGGSLRLSCAASGNTFRYYALGGYRQAPGKERELVATITSGGRTYYADSVKGRFTISRDNAKNTVYLQMNSLKPEDTAVHYGAAVGLDYFVGEYDYWGQGTQVTVSS	low polyreactivity
QVQLVESGGGLVQAGGSLRLSCAASGIIFKSYVMGWYRQAPGKEREFVARITYRGGSTYYADSVKGRFTISRDNAKNTVYLQMNSLKPEDTAVYYCNKKNPQDLTENGYWGQGTQVTVSS	high polyreactivity
QVQLVESGGGLVQAGGSLRLSCPASGFIFRYYAMGWYRQAPGKERELVAAISWSGGSTYYADSVKGRFTISRDSAKNTVYLQIYSLKPEDTAVYYCGAEGFSYFIYWGQGSQVTVSS	high polyreactivity
